Publication PMC3920478, “Small molecule-mediated refolding and activation of myosin motor function” (eLife, 2014)
“Also recorded” adds a separate entry of the source.

Legend:
β-cardiac myosin S1 = biological target: T1, β-cardiac myosin S1 (Sus scrofa, UniProt P79293); test: Microscale thermophoresis direct binding; design: species or system Porcine
T1 construct: S1 and HMM fragments were produced by proteolytic digestion of the full-length proteins with 0.05 mg/ml papain; from tissue; host or cells: porcine cardiac muscle
T1 sequence (P79293 1-843 limits assumed): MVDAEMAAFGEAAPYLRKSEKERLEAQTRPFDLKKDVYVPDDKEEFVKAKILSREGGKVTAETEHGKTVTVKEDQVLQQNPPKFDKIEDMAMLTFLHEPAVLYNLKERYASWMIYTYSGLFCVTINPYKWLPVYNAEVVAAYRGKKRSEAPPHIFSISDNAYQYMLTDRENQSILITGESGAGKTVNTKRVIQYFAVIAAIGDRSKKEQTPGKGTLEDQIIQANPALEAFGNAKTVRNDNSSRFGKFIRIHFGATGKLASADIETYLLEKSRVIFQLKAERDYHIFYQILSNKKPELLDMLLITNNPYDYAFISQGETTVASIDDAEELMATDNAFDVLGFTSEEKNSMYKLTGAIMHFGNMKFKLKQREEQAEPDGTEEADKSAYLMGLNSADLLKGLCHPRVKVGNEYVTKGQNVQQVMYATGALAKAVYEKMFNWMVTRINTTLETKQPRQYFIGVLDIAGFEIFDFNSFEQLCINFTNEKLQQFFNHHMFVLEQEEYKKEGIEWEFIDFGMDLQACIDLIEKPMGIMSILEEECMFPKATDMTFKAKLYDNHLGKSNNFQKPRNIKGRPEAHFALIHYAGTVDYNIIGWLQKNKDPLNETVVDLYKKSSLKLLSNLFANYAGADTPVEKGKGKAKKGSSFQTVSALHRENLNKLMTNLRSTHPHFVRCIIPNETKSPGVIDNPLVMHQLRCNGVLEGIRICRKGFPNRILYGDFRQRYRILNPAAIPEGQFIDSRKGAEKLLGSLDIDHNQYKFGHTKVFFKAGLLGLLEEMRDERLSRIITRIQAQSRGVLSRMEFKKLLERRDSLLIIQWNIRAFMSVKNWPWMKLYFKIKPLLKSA
Description: Proteolytic fragments were further purified by actin-coprecipitation.

β-cardiac myosin = β-cardiac myosin (Sus scrofa, UniProt P79293); test: Steady-state basal and actin-activated Mg2+-ATPase (NADH-coupled assay); format: biochemical, Porcine; settings: β-cardiac myosin S1, dose-dependence
Sequence of β-cardiac myosin (P79293 1-810 limits assumed): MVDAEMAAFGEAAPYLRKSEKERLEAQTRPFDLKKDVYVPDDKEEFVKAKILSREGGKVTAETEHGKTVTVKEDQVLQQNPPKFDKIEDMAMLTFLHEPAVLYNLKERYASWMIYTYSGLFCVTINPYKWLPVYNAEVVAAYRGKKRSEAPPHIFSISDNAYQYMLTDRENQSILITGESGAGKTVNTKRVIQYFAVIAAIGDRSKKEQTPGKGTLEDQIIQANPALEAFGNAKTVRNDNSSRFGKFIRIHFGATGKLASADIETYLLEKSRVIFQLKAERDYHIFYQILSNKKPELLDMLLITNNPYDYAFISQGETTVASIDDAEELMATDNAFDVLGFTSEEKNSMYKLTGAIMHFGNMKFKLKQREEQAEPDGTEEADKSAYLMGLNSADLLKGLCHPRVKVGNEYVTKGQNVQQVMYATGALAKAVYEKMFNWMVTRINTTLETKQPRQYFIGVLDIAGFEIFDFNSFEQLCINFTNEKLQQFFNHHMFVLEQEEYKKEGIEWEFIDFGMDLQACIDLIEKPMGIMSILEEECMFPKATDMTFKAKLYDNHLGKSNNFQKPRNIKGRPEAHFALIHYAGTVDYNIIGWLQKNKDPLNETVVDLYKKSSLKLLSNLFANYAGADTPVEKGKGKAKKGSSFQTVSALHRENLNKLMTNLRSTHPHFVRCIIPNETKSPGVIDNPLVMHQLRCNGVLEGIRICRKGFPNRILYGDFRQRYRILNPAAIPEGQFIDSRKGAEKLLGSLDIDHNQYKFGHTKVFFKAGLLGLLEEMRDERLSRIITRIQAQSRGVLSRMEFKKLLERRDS
Experimental: Rabbit fast skeletal muscle heavy meromyosin (HMM) was prepared as described by [Margossian and Lowey (1982)]. Porcine β-cardiac myosin was prepared essentially as described by [Pant et al. (2009)] and [Jacques et al. (2008)] and further purified by gel filtration. S1 and HMM fragments were produced by proteolytic digestion of the full-length proteins with 0.05 mg/ml papain (10 min, 25°C) for S1 and with 0.1 mg/ml TLCK-treated α-chymotrypsin (15 min, 25°C) for HMM. Reactions were stopped with specific protease inhibitors for papain (10 µM E−64) and chymotrypsin (10 µM chymostatin, 1 mM benzamidine). Proteolytic fragments were further purified by actin-coprecipitation. Pellets were washed twice and myosin was extracted from the pellets using ATP containing buffer. Gel filtration was used to further increase purity of myosin S1 and HMM fragments. His-tagged motor domain constructs of Dd myosin-2, Dd myosin-1B, Dd myosin-1C, Dd myosin-1D, Dd myosin-1E, Dd myosin-5b fused to two Dd α-actinin repeats substituting the light-chain binding domains ([Anson et al., 1996]) were expressed in Dd AX3-ORF + cells and purified by Ni^2+-chelate affinity chromatography ([Manstein and Hunt, 1995]).
Basal and actin-activated Mg^2+-ATPase activities were measured using the NADH-coupled assay described previously ([Furch et al., 1998]) adapted for higher throughput screens for a temperature controlled plate reader (Multiscan FC, Thermo Scientific, Waltham, MA) at 25°C. […] Control measurements were carried out in the absence of drug, as well as in the presence of according concentrations of the non-binding (−)-enantiomer EMD 57439 to account for possible absorption effects. […] Data points are mean values from 3 to 5 independent experiments. Error bars indicate standard deviations.

phosphodiesterase III = tested on: phosphodiesterase III; design: method as in Gambassi et al., 1993; settings: ref Gambassi et al., 1993; cited from earlier work
F-actin = F-actin (UniProt P68135)

| K M(Actin): F-actin concentration for half-maximal activation of the steady-state ATPase, control without EMD 57033 (F-actin) [µM] | K M(Actin): F-actin concentration for half-maximal activation of the steady-state ATPase, with 25 µM EMD 57033 (F-actin) [µM] | kcat/K M(Actin) of the actin-activated ATPase, calculated ratio, control without EMD 57033 (F-actin) [M⁻¹ s⁻¹] | kcat/K M(Actin) of the actin-activated ATPase, calculated ratio, with 25 µM EMD 57033 (F-actin) [µM^v1 s^−1] | Compound | Binding (in words) (β-cardiac myosin S1) | Activation of the actin-activated ATPase (in words) (β-cardiac myosin) | Phosphodiesterase III inhibition (phosphodiesterase III) |
| --- | --- | --- | --- | --- | --- | --- | --- |
|  |  |  |  | COc1ccc(C(=O)N2CCCc3cc(C4=NNC(=O)SC4C)ccc32)cc1OC (stereo not shown) [EMD 57439] | Neither binding nor activation was observed | Neither binding nor activation was observed; also recorded: no activation | potent phosphodiesterase III inhibitor |
| 36.8 | 3.6 | 3260 | 0.0528 | β-cardiac myosin (from UniProt P79293 1-1935) (natural protein) |  |  |  |
